For one experiment, the target named is T1, His-USP25 (human, UniProt Q9UHP3 1-1055).
T1 construct: USP25, human; also called pGEX-4T-1-His-USP25; source: E. coli BL21, purified
T1 sequence (looked up): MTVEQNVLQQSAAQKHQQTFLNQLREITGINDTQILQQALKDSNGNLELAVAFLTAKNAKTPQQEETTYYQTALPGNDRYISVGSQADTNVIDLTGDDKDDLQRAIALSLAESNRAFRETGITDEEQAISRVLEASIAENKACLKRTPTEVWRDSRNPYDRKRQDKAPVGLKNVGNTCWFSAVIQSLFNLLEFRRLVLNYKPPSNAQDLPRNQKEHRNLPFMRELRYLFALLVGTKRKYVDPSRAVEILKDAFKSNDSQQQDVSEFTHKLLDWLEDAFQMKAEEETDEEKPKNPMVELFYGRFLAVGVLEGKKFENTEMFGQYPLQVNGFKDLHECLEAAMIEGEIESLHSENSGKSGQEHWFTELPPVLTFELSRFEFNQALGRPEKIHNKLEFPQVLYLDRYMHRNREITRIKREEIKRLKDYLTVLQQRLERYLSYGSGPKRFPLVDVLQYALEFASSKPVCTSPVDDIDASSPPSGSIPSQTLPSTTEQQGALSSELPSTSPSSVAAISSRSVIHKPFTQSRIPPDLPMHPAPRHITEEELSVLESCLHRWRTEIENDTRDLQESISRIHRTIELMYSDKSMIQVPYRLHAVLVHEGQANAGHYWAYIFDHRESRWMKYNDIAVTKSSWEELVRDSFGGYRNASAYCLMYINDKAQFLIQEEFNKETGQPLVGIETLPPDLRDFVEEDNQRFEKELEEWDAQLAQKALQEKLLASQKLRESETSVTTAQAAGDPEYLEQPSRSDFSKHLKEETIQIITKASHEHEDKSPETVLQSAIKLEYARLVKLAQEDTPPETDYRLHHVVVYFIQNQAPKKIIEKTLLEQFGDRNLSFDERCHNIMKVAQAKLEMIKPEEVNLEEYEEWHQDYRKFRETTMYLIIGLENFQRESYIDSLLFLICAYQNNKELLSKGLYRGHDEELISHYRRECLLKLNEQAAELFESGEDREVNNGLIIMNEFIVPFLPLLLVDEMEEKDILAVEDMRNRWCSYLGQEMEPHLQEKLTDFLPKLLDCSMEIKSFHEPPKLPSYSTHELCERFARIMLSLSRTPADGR
Put plainly: pull-down; about 10 ug GST fusion protein on glutathione Sepharose incubated with recombinant His-tagged protein, 2 h at 4 C, six washes with NETN buffer; blot with His antibodies. The note with it: both partners purified.

A further experiment concerns the target T2, His-METTL3 (human, UniProt Q86U44 1-580).
T2 construct: METTL3, human; also called pGEX-4T-1-His-METTL3; source: E. coli BL21, purified
The experiment is described as above. The settings on record: both partners purified.

T2 sequence (Q86U44 whole entry): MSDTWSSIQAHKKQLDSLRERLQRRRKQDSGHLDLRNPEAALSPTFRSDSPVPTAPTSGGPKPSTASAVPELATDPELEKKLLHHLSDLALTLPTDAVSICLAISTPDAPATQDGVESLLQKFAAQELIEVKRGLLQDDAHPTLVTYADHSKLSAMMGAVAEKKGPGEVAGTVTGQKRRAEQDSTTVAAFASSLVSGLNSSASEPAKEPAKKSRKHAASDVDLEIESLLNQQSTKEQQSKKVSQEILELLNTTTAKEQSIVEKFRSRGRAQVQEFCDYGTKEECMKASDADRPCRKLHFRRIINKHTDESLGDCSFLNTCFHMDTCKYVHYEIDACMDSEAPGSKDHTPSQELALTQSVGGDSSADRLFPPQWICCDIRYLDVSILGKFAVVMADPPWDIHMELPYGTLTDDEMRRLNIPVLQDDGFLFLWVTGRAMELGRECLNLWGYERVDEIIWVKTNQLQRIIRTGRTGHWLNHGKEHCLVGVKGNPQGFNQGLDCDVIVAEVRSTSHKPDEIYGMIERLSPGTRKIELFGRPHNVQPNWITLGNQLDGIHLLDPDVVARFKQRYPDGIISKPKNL

B1: GST-METTL3-425-500 (domain or fragment, human, UniProt Q86U44 425-500, looked up)
chain: DGFLFLWVTGRAMELGRECLNLWGYERVDEIIWVKTNQLQRIIRTGRTGHWLNHGKEHCLVGVKGNPQGFNQGLDC
notes: METTL3, human, Interface loop, residues 425-500; also called Interface loop (aa 425-500) of METTL3; pGEX-4T-1-GST-METTL3-425-500; source: E. coli BL21, purified (glutathione Sepharose)
As to B1, in the experiment with His-USP25, the binding result is reported as “binds”.

B2: GST-USP25-166-718 (domain or fragment, human, UniProt Q9UHP3 166-718, looked up)
chain: KAPVGLKNVGNTCWFSAVIQSLFNLLEFRRLVLNYKPPSNAQDLPRNQKEHRNLPFMRELRYLFALLVGTKRKYVDPSRAVEILKDAFKSNDSQQQDVSEFTHKLLDWLEDAFQMKAEEETDEEKPKNPMVELFYGRFLAVGVLEGKKFENTEMFGQYPLQVNGFKDLHECLEAAMIEGEIESLHSENSGKSGQEHWFTELPPVLTFELSRFEFNQALGRPEKIHNKLEFPQVLYLDRYMHRNREITRIKREEIKRLKDYLTVLQQRLERYLSYGSGPKRFPLVDVLQYALEFASSKPVCTSPVDDIDASSPPSGSIPSQTLPSTTEQQGALSSELPSTSPSSVAAISSRSVIHKPFTQSRIPPDLPMHPAPRHITEEELSVLESCLHRWRTEIENDTRDLQESISRIHRTIELMYSDKSMIQVPYRLHAVLVHEGQANAGHYWAYIFDHRESRWMKYNDIAVTKSSWEELVRDSFGGYRNASAYCLMYINDKAQFLIQEEFNKETGQPLVGIETLPPDLRDFVEEDNQRFEKELEEWDAQLAQKALQEKLLA
notes: USP25, human, USP domain, residues 166-718; also called USP domain (aa 166-718) of USP25; pGEX-4T-1-GST-USP25-166-718; source: E. coli BL21, purified (glutathione Sepharose)
Take B2: in the experiment with His-METTL3, the binding result is reported as “binds”.

B3: GST-METTL3-369-424 (domain or fragment, human, UniProt Q86U44 369-424, looked up)
chain: FPPQWICCDIRYLDVSILGKFAVVMADPPWDIHMELPYGTLTDDEMRRLNIPVLQD
notes: METTL3, human, Gate-loop 1; source: E. coli BL21, purified (glutathione Sepharose)
Consider B3, for which, in the experiment with His-USP25, the binding result is listed as “binds”.

The values above are taken from paper PMC12661985, “USP25 deubiquitinates cytosolic METTL3 to impede glioma proliferation via an m6A-independent pathway” (iScience, 2025).
